These results are taken from PMC9998502, “Functional selectivity of EM-2 analogs at the mu-opioid receptor” (Frontiers in Pharmacology, 2023).

Starred links: 1 amine or outer side, 2 acyl side, 3 side chain; linkers in the order of their positions; H or OH if unused. Non-standard residues stand in square brackets, D forms with d. No end group written: not given here. (R)β21Nal = (R)-β2-1-naphthylalanine, O=C([C@@H](CN[*:1])Cc1cccc2ccccc12)[*:2]; (R)β31Nal = (R)-β3-1-naphthylalanine, O=C(C[C@@H](Cc1cccc2ccccc12)N[*:1])[*:2]; Dmt = Cc1cc(O)cc(C)c1C[C@H](N)C(=O)O A value given as a limit tells only on which side of the number the result lay.

For experiment [1], the target named is T1, human delta opioid receptor (human, UniProt P41143 1-372).
T1 construct: delta opioid receptor, human recombinant, in membranes of transfected CHO cells; also called delta receptor; source: commercial membranes of CHO cells transfected with human recombinant opioid receptors
T1 sequence (P41143 whole entry, stated change not applied): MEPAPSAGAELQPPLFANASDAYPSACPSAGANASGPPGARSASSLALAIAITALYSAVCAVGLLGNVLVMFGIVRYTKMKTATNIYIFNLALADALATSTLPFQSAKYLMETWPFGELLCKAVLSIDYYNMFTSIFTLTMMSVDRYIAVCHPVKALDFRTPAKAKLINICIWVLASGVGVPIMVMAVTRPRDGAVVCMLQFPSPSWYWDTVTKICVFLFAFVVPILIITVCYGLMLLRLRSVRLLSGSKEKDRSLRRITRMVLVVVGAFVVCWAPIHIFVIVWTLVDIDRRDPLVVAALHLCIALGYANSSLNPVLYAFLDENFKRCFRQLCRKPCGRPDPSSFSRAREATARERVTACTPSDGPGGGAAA
The experiment can be described thus: radioligand binding; displacement of [3H]deltorphin-2 from commercial membranes of CHO cells transfected with the human recombinant delta opioid receptor; Ki, mean ± SEM, n ≥ 3. The note with it: one partner purified.

In experiment [2] the target is T2, human mu opioid receptor (human, UniProt P35372 1-400). The experiment can be described thus: cell-based or functional assay.
T2 sequence (P35372 whole entry): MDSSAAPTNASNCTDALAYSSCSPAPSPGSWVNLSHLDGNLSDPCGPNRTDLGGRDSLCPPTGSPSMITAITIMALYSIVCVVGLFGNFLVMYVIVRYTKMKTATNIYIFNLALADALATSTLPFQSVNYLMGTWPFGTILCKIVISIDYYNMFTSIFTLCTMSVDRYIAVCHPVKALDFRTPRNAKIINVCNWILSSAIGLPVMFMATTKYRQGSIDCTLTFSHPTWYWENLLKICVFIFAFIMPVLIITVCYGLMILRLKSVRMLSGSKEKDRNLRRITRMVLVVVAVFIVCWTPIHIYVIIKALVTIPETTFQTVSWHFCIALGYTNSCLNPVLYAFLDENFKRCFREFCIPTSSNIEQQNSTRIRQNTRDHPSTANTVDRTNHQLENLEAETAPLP
Experiment [3] addresses T3, human kappa opioid receptor (human, UniProt P41145 1-380).
T3 construct: kappa opioid receptor, human recombinant, in membranes of transfected CHO cells; also called kappa receptor; source: commercial membranes of CHO cells transfected with human recombinant opioid receptors
Briefly: radioligand binding; displacement of [3H]U-69593 from commercial membranes of CHO cells transfected with the human recombinant kappa opioid receptor; Ki, mean ± SEM, n ≥ 3. The settings on record: one partner purified.

The target of experiment [4] is T2, human mu opioid receptor. The experiment can be described thus: radioligand binding; displacement of [3H]DAMGO from commercial membranes of CHO cells transfected with the human recombinant mu opioid receptor; Ki, mean ± SEM, n ≥ 3. The note with it: one partner purified.

T3 sequence (P41145 whole entry): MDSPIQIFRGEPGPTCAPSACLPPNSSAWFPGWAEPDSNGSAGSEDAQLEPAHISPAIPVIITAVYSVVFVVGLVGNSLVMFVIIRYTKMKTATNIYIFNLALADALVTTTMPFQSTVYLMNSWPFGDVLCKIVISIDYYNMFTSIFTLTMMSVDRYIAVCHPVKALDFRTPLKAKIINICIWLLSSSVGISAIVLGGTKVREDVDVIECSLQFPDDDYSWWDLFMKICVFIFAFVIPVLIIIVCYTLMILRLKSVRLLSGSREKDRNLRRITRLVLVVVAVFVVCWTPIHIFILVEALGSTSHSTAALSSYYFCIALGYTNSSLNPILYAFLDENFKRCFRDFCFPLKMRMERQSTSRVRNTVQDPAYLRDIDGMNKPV

B1: EM-2 analog 10 (Tyr-Pro-(R)-β2-1-Nal-Phe-NH2) (peptide)
chain: YP[(R)β21Nal]F-NH2
modifications: N-terminus assumed
SMILES: NC(=O)[C@H](Cc1ccccc1)NC(=O)[C@@H](CNC(=O)[C@@H]1CCCN1C(=O)[C@@H](N)Cc1ccc(O)cc1)Cc1cccc2ccccc12
Consider B1, for which the Ki in experiment [1] is above 1000 nM; in experiment [3] it was above 1000 nM; in the experiment with human mu opioid receptor [4], 34.9 nM. Moreover, the “calcium mobilization, CHO cells with human mu receptor and Gαqi5: α (Emax ratio to the standard agonist)” value with human mu opioid receptor [2] turned out to be 0.25.

B2: EM-2 analog 12 (Tyr-Pro-(R)-β3-1-Nal-Phe-NH2) (peptide)
chain: YP[(R)β31Nal]F-NH2
modifications: N-terminus assumed
SMILES: NC(=O)[C@H](Cc1ccccc1)NC(=O)C[C@@H](Cc1cccc2ccccc12)NC(=O)[C@@H]1CCCN1C(=O)[C@@H](N)Cc1ccc(O)cc1
B2: the inhibition constant (Ki) was above 1000 nM in experiment [1], above 1000 nM in experiment [3] and 32.1 nM in the experiment with human mu opioid receptor [4]. Besides, in the experiment with human mu opioid receptor [2], the “calcium mobilization, CHO cells with human mu receptor and Gαqi5: α (Emax ratio to the standard agonist)” value was 0.97.

B3: EM-2 analog 11 (Dmt-Pro-(R)-β2-1-Nal-Phe-NH2) (peptide)
chain: [Dmt]P[(R)β21Nal]F-NH2
modifications: N-terminus assumed
SMILES: Cc1cc(O)cc(C)c1C[C@H](N)C(=O)N1CCC[C@H]1C(=O)NC[C@@H](Cc1cccc2ccccc12)C(=O)N[C@@H](Cc1ccccc1)C(N)=O
For B3, the values for the Ki (in experiment [1]; in experiment [3]; in the experiment with human mu opioid receptor [4]) were 675 nM, above 1000 nM and 9.54 nM, respectively. Also, in the experiment with human mu opioid receptor [2], the “calcium mobilization, CHO cells with human mu receptor and Gαqi5: α (Emax ratio to the standard agonist)” value was 0.57.

B4: EM-2 analog 13 (Dmt-Pro-(R)-β3-1-Nal-Phe-NH2) (peptide)
chain: [Dmt]P[(R)β31Nal]F-NH2
modifications: N-terminus assumed
SMILES: Cc1cc(O)cc(C)c1C[C@H](N)C(=O)N1CCC[C@H]1C(=O)N[C@@H](CC(=O)N[C@@H](Cc1ccccc1)C(N)=O)Cc1cccc2ccccc12
B4: the inhibitory constant (Ki) was 722 nM in experiment [1], 915 nM in experiment [3] and 2.75 nM in the experiment with human mu opioid receptor [4]. For the same molecule, the “calcium mobilization, CHO cells with human mu receptor and Gαqi5: α (Emax ratio to the standard agonist)” value with human mu opioid receptor [2] is 0.77.
